Earlier results on one substance are cited in article PMC2875293.

As usually defined, the Kd is the equilibrium constant for the complex coming apart.

This data set concerns the target Sep15 (Homo sapiens) (UniProt O60613).

GT1 (UDP-glucose:glycoprotein glucosyltransferase 1), sequence (Q9NYU2 43-1555): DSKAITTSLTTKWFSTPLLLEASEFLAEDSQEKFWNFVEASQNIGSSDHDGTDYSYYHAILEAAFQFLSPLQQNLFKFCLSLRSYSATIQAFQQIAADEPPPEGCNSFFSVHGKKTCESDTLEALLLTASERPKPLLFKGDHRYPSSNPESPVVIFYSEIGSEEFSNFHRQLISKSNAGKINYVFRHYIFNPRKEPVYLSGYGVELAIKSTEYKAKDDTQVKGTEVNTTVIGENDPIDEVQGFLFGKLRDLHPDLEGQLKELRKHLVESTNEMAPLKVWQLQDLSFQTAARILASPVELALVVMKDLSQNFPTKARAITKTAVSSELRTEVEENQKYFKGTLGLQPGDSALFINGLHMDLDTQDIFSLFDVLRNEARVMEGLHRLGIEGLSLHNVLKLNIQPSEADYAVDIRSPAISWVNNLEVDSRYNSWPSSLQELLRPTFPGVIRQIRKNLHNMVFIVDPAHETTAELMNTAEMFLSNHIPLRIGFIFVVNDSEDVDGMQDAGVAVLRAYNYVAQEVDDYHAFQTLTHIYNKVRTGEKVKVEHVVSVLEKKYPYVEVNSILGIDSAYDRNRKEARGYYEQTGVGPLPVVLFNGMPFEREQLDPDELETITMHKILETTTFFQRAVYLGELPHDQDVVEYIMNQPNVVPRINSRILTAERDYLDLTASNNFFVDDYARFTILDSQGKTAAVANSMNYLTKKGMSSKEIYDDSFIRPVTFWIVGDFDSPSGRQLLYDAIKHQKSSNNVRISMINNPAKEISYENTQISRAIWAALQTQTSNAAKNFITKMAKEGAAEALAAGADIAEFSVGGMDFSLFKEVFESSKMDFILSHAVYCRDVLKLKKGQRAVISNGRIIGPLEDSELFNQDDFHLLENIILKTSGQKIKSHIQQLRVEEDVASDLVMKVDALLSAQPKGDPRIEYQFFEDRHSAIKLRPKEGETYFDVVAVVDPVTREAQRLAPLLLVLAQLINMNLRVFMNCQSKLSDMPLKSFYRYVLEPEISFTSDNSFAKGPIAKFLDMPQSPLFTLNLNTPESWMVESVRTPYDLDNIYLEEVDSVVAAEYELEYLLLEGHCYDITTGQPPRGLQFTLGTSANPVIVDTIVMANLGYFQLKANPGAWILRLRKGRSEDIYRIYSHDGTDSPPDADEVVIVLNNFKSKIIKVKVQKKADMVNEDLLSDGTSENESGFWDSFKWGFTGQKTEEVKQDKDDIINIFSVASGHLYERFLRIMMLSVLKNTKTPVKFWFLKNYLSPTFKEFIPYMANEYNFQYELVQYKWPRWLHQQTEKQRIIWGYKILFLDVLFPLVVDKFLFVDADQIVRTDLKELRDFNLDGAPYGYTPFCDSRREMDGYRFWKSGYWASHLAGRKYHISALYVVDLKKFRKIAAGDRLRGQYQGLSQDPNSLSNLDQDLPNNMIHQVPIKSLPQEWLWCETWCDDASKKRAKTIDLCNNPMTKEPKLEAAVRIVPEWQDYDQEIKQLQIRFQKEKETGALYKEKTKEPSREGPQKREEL
Sep15 (Homo sapiens), sequence (O60613 32-165): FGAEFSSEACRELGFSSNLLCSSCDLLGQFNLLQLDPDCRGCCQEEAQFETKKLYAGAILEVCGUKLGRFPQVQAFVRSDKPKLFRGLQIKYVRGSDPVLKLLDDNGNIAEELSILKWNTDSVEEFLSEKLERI

On to “GT1 (UDP-glucose:glycoprotein glucosyltransferase 1) (from UniProt Q9NYU2)”, for which the Kd is under 0.02 µM.
